The values below come from patent US20260286413A1, “HYALURONAN SYNTHESIS, SECRETION AND LENGTH CONTROL” (UNIVERSITY OF VIRGINIA, priority 2023, published 2026).

A value given as a limit tells only on which side of the number the result lay.

In assay [1] the test system is Hyaluronic acid synthesis. Particulars: cited from earlier work.
The target of assay [2] is T1, X1HAS1 (Xenopus laevis, UniProt P13563).
T1 construct: dodeca-histidine (His12) (N); made in house; host or cells: Spodoptera frugiperda Sf9 cells (baculovirus)
T1 sequence (P13563 1-588): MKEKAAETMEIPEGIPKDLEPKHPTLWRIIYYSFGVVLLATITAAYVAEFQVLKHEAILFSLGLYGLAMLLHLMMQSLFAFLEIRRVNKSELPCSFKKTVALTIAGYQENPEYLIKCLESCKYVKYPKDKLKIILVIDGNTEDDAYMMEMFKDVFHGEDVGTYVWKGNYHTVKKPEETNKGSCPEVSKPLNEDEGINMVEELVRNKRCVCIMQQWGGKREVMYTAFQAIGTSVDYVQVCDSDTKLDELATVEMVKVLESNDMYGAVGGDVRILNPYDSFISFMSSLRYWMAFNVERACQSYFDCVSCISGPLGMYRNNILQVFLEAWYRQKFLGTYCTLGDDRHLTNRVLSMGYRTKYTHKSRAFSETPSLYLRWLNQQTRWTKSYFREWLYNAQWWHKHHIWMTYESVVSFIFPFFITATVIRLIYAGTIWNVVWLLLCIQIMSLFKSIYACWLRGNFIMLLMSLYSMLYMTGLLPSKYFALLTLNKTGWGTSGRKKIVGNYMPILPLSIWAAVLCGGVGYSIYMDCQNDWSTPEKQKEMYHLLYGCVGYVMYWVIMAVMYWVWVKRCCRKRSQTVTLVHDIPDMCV
Description: Substrate turnover rate quantification (UDP release, enzyme-coupled assay). The note with it: for Km: one substrate titrated at saturating concentration of the other, real-time quantification of released UDP, read-out: Michaelis-Menten constant. In kind it is biochemical. As for the experimental part:
UDP release during HA synthesis was quantified using an enzyme-coupled assay as previously described (10, 13). Depletion of NADH was monitored at 340 nm every 60 s for 3 hours at 37° C. in a SpectraMax instrument. The raw data was processed in MS Excel and a linear phase of each reaction was determined. The rate of NADH depletion was converted to pmoles of UDP released using a UDP standardized plot (FIG. S1C) for Michaelis-Menten constant determination using GraphPad Prism. For substrate turnover rate quantification of X1HAS1 mutants, pmoles of released UDP were converted to the number of corresponding substrate turnovers per molecule of X1HAS1, per minute. Data is presented relative to wild type activity. All experiments were performed in four to eight replicates and error bars represent standard deviation from the means.
HAS transfers the UDP-activated glycosyl unit (the donor sugar) to the non-reducing end of the nascent HA polymer (the acceptor sugar). This reaction generates UDP and elongated HA as reaction products (FIG. 1A). Catalytic activity can be assessed by monitoring the release of UDP in an enzyme-coupled reaction, as previously described (10, 13), or quantifying HA, either radiometrically or by dye staining following electrophoresis.

For assay [3], the target named is T1, X1HAS1. Description: Electrophoretic HA size determination (agarose gel, Stains-all) of in vitro synthesized HA. It is filed as biochemical. The protocol: To assess the size of HA synthesized by X1HAS1, similar reaction conditions were applied to the ones described above. […] […] Controls were carried out by digesting the synthesized polymers with hyaluronidase. Synthesis reactions were mixed with SDS-PAGE loading dye and applied to a 1% agarose gel (Ultra-pure agarose, Invitrogen) casted in an Owl B2 system (ThermoFisher). […] After the run, the gel was equilibrated in 50% ethanol for 1.5 h and subjected to staining in 0.05% Stains-all (Sigma) in 50% ethanol overnight under light-protection. Post-staining background was reduced by soaking the gel in 20% ethanol for 3-7 days in the dark. The migration of the synthesized HA species was compared to HA standards from Streptococcus equi (Sigma), as well as enzymatically generated ladders: HA LoLadder and HA HiLadder (Hyalose).

For another assay, the system named is HAS isoforms. The note with it: cited from earlier work.

As for `Cc1cc(=O)oc2cc(O)ccc12` [4-methylumbelliferone], the “effect on hyaluronic acid synthesis” value in assay [1] was “inhibited”.

Take `O=C(O)[C@H]1O[C@H](OP(=O)(O)OP(=O)(O)OC[C@H]2O[C@@H](n3ccc(=O)[nH]c3=O)[C@H](O)[C@@H]2O)[C@H](O)[C@@H](O)[C@@H]1O` [UDP-GlcA, reference compound]: on X1HAS1 [2], the Km was about 370 µM.

As to `CC(=O)N[C@H]1[C@@H](OP(=O)(O)OP(=O)(O)OC[C@H]2O[C@@H](n3ccc(=O)[nH]c3=O)[C@H](O)[C@@H]2O)O[C@H](CO)[C@@H](O)[C@@H]1O` [UDP-GlcNAc, reference compound], on X1HAS1 [2], the Km was about 470 µM.

B1: X1HAS1: Xenopus laevis HA synthase isoform 1, wild type (Uniprot P13563, SEQ ID NO: 9) (protein, UniProt P13563 1-588, looked up)
Hyaluronan synthase 1: MKEKAAETMEIPEGIPKDLEPKHPTLWRIIYYSFGVVLLATITAAYVAEFQVLKHEAILFSLGLYGLAMLLHLMMQSLFAFLEIRRVNKSELPCSFKKTVALTIAGYQENPEYLIKCLESCKYVKYPKDKLKIILVIDGNTEDDAYMMEMFKDVFHGEDVGTYVWKGNYHTVKKPEETNKGSCPEVSKPLNEDEGINMVEELVRNKRCVCIMQQWGGKREVMYTAFQAIGTSVDYVQVCDSDTKLDELATVEMVKVLESNDMYGAVGGDVRILNPYDSFISFMSSLRYWMAFNVERACQSYFDCVSCISGPLGMYRNNILQVFLEAWYRQKFLGTYCTLGDDRHLTNRVLSMGYRTKYTHKSRAFSETPSLYLRWLNQQTRWTKSYFREWLYNAQWWHKHHIWMTYESVVSFIFPFFITATVIRLIYAGTIWNVVWLLLCIQIMSLFKSIYACWLRGNFIMLLMSLYSMLYMTGLLPSKYFALLTLNKTGWGTSGRKKIVGNYMPILPLSIWAAVLCGGVGYSIYMDCQNDWSTPEKQKEMYHLLYGCVGYVMYWVIMAVMYWVWVKRCCRKRSQTVTLVHDIPDMCV
In the case of B1, the “HA production with Mn2+” value with X1HAS1 [3] (agarose gel assay, Mn2+ versus Mg2+) was “reduces HA production slightly”. Further, the “catalytic rate suggested by electrophoretic analysis versus rate by UDP quantification” value in the assay with X1HAS1 [3] (based on ~1.6 MDa produced within 90 min) is reported as “about 2 times”. Moreover, the “size of HA polymers with sustained high substrate” value in the assay with X1HAS1 [3] (both substrates (2.5 mM) supplemented at 2, 4, 6 h, UDP converted to UTP) was over 1.6 MDa. The “size of HA polymers synthesized at completion” value with X1HAS1 [3] (in vitro synthesis, relative to HA marker) was over 1.6 MDa. The HA product length in the assay with X1HAS1 [3] (produced within 90 min) is given as ~ 1.6 MDa. Further, in the assay with X1HAS1 [3] (substrate replenishing, UDP-GlcNAc at 0.1-1 mM), the “change of HA size with one substrate limiting” value is reported as “no increase in HA size”. In the assay with X1HAS1 [3] (without UDP removal, 2.5 mM of both substrates), the “maximum HA extension” value is on record as about 1.6 MDa. Also, in the assay with X1HAS1 [2] (Mn2+ instead of Mg2+), the “activity reduction when manganese is used instead of magnesium as cofactor” value was “about 30%”. Moreover, in the assay with X1HAS1 [2] (UDP release), the overall catalytic rate result is “approximately 30 substrate turnovers per minute”.

B2: HAS2: human HA synthase isoform 2 (protein, UniProt Q92819 1-552, looked up)
Hyaluronan synthase 2: MHCERFLCILRIIGTTLFGVSLLLGITAAYIVGYQFIQTDNYYFSFGLYGAFLASHLIIQSLFAFLEHRKMKKSLETPIKLNKTVALCIAAYQEDPDYLRKCLQSVKRLTYPGIKVVMVIDGNSEDDLYMMDIFSEVMGRDKSATYIWKNNFHEKGPGETDESHKESSQHVTQLVLSNKSICIMQKWGGKREVMYTAFRALGRSVDYVQVCDSDTMLDPASSVEMVKVLEEDPMVGGVGGDVQILNKYDSWISFLSSVRYWMAFNIERACQSYFGCVQCISGPLGMYRNSLLHEFVEDWYNQEFMGNQCSFGDDRHLTNRVLSLGYATKYTARSKCLTETPIEYLRWLNQQTRWSKSYFREWLYNAMWFHKHHLWMTYEAIITGFFPFFLIATVIQLFYRGKIWNILLFLLTVQLVGLIKSSFASCLRGNIVMVFMSLYSVLYMSSLLPAKMFAIATINKAGWGTSGRKTIVVNFIGLIPVSVWFTILLGGVIFTIYKESKRPFSESKQTVLIVGTLLYACYWVMLLTLYVVLINKCGRRKKGQQYDMVLDV
Take B2: in the assay on HAS isoforms, the “HA polymer size” value is “several megadaltons”.

B3: HAS1: human HA synthase isoform 1 (protein, UniProt Q92839 1-578, looked up)
Hyaluronan synthase 1: MRQQDAPKPTPAACRCSGLARRVLTIAFALLILGLMTWAYAAGVPLASDRYGLLAFGLYGAFLSAHLVAQSLFAYLEHRRVAAAARGPLDAATARSVALTISAYQEDPAYLRQCLASARALLYPRARLRVLMVVDGNRAEDLYMVDMFREVFADEDPATYVWDGNYHQPWEPAAAGAVGAGAYREVEAEDPGRLAVEALVRTRRCVCVAQRWGGKREVMYTAFKALGDSVDYVQVCDSDTRLDPMALLELVRVLDEDPRVGAVGGDVRILNPLDSWVSFLSSLRYWVAFNVERACQSYFHCVSCISGPLGLYRNNLLQQFLEAWYNQKFLGTHCTFGDDRHLTNRMLSMGYATKYTSRSRCYSETPSSFLRWLSQQTRWSKSYFREWLYNALWWHRHHAWMTYEAVVSGLFPFFVAATVLRLFYAGRPWALLWVLLCVQGVALAKAAFAAWLRGCLRMVLLSLYAPLYMCGLLPAKFLALVTMNQSGWGTSGRRKLAANYVPLLPLALWALLLLGGLVRSVAHEARADWSGPSRAAEAYHLAAGAGAYVGYWVAMLTLYWVGVRRLCRRRTGGYRVQV
On to B3, for which the “HA polymer size” value in the assay with HAS isoforms was “several megadaltons”.
